Results as given in publication PMC12575786 (Nature communications, 2025).
Substitutions are numbered along the chain they refer to. Numbers in names are those of the source.

Experiments:
[1] = target: the molecule itself; assay: thioflavin T fluorescence
[2] = target: the molecule itself; assay: solution NMR, decay of monomer signals over time

B1: human RIPK1 RHIM-harboring domain (residues 496-583), wild type (domain or fragment, UniProt Q13546 496-583, looked up)
chain: HMPSLHNIPVPETNYLGNTPTMPFSSLPPTDESIKYTIYNSTGIQIGAYNYMEIGGTSSSLLDSTNTNFKEEPAAKYQAIFDNTTSLT
- binding result [1]: binds

B2: human RIPK1 RHIM-harboring domain (residues 496-583), N545D variant (domain or fragment, UniProt Q13546 496-583, looked up)
chain: B1 chain with N50D
- binding result [2]: binds
